The target in series [1] is human general control nonderepressible 2 (GCN2), full-length, StrepII-tagged (human) (UniProt Q9P2K8).
Series [2] concerns the molecule itself. The series can be described thus: SEC-MALS; purified GCN2 in solution; 392 kDa measured against 384 kDa theoretical for a homodimer. On the technique in general: Size exclusion chromatography separates by hydrodynamic size, large species first.

From PMC6421407, “Activation of GCN2 by the ribosomal P-stalk” (Proceedings of the National Academy of Sciences of the …, 2019) come the findings set out here.

“ribosomes purified from rabbit reticulocyte lysate (from UniProt G1SPK4 1-318; P19943 1-44; G1TT27 1-257) (complex)”: in series [1], the EC50 of stimulation of eIF2α phosphorylation by GCN2, titration of ribosomes is 25 nM and the fold stimulation of eIF2α phosphorylation by GCN2, titration of ribosomes came to 20 fold.

B1: human general control nonderepressible 2 (GCN2), full-length, StrepII-tagged (enzyme, UniProt Q9P2K8 1-1649, looked up)
chain: MAGGRGAPGRGRDEPPESYPQRQDHELQALEAIYGADFQDLRPDACGPVKEPPEINLVLYPQGLTGEEVYVKVDLRVKCPPTYPDVVPEIELKNAKGLSNESVNLLKSRLEELAKKHCGEVMIFELAYHVQSFLSEHNKPPPKSFHEEMLERRAQEEQQRLLEAKRKEEQEQREILHEIQRRKEEIKEEKKRKEMAKQERLEIASLSNQDHTSKKDPGGHRTAAILHGGSPDFVGNGKHRANSSGRSRRERQYSVCNSEDSPGSCEILYFNMGSPDQLMVHKGKCIGSDEQLGKLVYNALETATGGFVLLYEWVLQWQKKMGPFLTSQEKEKIDKCKKQIQGTETEFNSLVKLSHPNVVRYLAMNLKEQDDSIVVDILVEHISGVSLAAHLSHSGPIPVHQLRRYTAQLLSGLDYLHSNSVVHKVLSASNVLVDAEGTVKITDYSISKRLADICKEDVFEQTRVRFSDNALPYKTGKKGDVWRLGLLLLSLSQGQECGEYPVTIPSDLPADFQDFLKKCVCLDDKERWSPQQLLKHSFINPQPKMPLVEQSPEDSEGQDYVETVIPSNRLPSAAFFSETQRQFSRYFIEFEELQLLGKGAFGAVIKVQNKLDGCCYAVKRIPINPASRQFRRIKGEVTLLSRLHHENIVRYYNAWIERHERPAGPGTPPPDSGPLAKDDRAARGQPASDTDGLDSVEAAAPPPILSSSVEWSTSGERSASARFPATGPGSSDDEDDDEDEHGGVFSQSFLPASDSESDIIFDNEDENSKSQNQDEDCNEKNGCHESEPSVTTEAVHYLYIQMEYCEKSTLRDTIDQGLYRDTVRLWRLFREILDGLAYIHEKGMIHRDLKPVNIFLDSDDHVKIGDFGLATDHLAFSADSKQDDQTGDLIKSDPSGHLTGMVGTALYVSPEVQGSTKSAYNQKVDLFSLGIIFFEMSYHPMVTASERIFVLNQLRDPTSPKFPEDFDDGEHAKQKSVISWLLNHDPAKRPTATELLKSELLPPPQMEESELHEVLHHTLTNVDGKAYRTMMAQIFSQRISPAIDYTYDSDILKGNFSIRTAKMQQHVCETIIRIFKRHGAVQLCTPLLLPRNRQIYEHNEAALFMDHSGMLVMLPFDLRIPFARYVARNNILNLKRYCIERVFRPRKLDRFHPKELLECAFDIVTSTTNSFLPTAEIIYTIYEIIQEFPALQERNYSIYLNHTMLLKAILLHCGIPEDKLSQVYIILYDAVTEKLTRREVEAKFCNLSLSSNSLCRLYKFIEQKGDLQDLMPTINSLIKQKTGIAQLVKYGLKDLEEVVGLLKKLGIKLQVLINLGLVYKVQQHNGIIFQFVAFIKRRQRAVPEILAAGGRYDLLIPQFRGPQALGPVPTAIGVSIAIDKISAAVLNMEESVTISSCDLLVVSVGQMSMSRAINLTQKLWTAGITAEIMYDWSQSQEELQEYCRHHEITYVALVSDKEGSHVKVKSFEKERQTEKRVLETELVDHVLQKLRTKVTDERNGREASDNLAVQNLKGSFSNASGLFEIHGATVVPIVSVLAPEKLSASTRRRYETQVQTRLQTSLANLHQKSSEIEILAVDLPKETILQFLSLEWDADEQAFNTTVKQLLSRLPKQRYLKLVCDEIYNIKVEKKVSVLFLYSYRDDYYRILF
notes: General control nonderepressible 2 (GCN2), human, full length; Homodimer by SEC-MALS (392 kDa measured, 384 kDa theoretical); also called construct A; full-length GCN2
For B1, the stoichiometry N – broadly, a count of units in the complex or per binding partner – in series [2] was determined as 2.
